Values quoted from earlier work, collected in publication PMC5430633.

Target: LC3B (Homo sapiens) (UniProt Q9GZQ8)

Kd: 91 µM
Substance: Nix LIR (from UniProt O60238)
